Measured values reported in patent publication US20190218277A1 (Chugai, published 2019).
Where a chain is given by its changes, count along the chain named.

T1: human FcγRIIa (167H) (human, UniProt P12318 36-217)
T1 construct: also called human FcγR2a allelic variant 167H
T1 sequence: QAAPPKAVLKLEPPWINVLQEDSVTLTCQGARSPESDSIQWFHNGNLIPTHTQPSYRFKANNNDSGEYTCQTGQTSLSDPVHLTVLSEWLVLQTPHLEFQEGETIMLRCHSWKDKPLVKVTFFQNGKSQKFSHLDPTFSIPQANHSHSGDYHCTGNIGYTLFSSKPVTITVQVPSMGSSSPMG

T2: mouse FcγRIII (mouse, UniProt P08508 31-215)
T2 construct: also called mFcγRIII; mouse FcγR3
T2 chain: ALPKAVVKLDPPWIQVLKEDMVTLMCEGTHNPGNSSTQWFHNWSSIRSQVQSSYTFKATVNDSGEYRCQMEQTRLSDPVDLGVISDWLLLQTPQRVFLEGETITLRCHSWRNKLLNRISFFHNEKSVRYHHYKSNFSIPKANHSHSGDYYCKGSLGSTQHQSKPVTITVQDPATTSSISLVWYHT

T3: mouse FcγRI (mouse, UniProt P26151 25-297)
T3 construct: also called mFcγRI; mouse FcγR1
T3 sequence: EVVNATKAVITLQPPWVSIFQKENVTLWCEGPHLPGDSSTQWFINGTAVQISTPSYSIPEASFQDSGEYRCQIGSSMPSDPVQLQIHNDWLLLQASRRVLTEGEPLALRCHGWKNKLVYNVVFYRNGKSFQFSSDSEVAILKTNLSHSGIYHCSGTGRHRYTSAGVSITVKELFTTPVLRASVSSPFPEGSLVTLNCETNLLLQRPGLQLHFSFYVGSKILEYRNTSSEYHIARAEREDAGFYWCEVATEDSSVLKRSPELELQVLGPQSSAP

T4: human FcγRIIa (167R) (human, UniProt P12318 36-217)
T4 construct: also called human FcγR2a allelic variant 167R
T4 chain: T1 sequence with H133R

T5: human FcγRIIb (human, UniProt P31994 43-217)
T5 construct: also called human FcγR2b
T5 sequence: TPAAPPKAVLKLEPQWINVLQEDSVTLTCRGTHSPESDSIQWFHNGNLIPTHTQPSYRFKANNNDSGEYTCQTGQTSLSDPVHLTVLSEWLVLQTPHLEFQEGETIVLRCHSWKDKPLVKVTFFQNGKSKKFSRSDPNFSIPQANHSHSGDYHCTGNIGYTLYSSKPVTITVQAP

T6: human FcγRIIIb (NA1) (human, UniProt O75015 17-200)
T6 construct: also called human FcγR3b allelic variant NA1
T6 chain: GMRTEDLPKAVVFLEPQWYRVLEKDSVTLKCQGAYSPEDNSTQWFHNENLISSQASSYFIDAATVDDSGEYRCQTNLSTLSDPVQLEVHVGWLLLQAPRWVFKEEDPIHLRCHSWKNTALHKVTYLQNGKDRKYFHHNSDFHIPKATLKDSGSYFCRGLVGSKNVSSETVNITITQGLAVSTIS

B1: Anti-CD154 antibody (SLAPH0336a/SLAPL0336a) with Fc variant LALA+ACT3 (SG1044) (antibody)
heavy: EVQLVESGGGSVKPGGSLKLSCAASGFTFSDHYMYWVRQTPEKRLEWVAIISGGGSYTSYPDSMKGRFTISRDNAKNILHLQMSSLKSEDTAMYYCTRESNGKPGFAYWGQGTLVTVSAASTKGPSVFPLAPSSKSTSGGTAALGCLVKDYFPEPVTVSWNSGALTSGVHTFPAVLQSSGLYSLSSVVTVPSSSLGTQTYICNVNHKPSNTKVDKRVEPKSCDKTHTCPPCPAPEAAGGPSVFLFPPKPKDTLMISRTPEVTCVVVDVSHEDPEVKFNWYVDGVEVHNAKTKPREEQYNSTYRVVSVLTVLHQDWLNGKEYKCKVSNKALPAPIEKTISKAKGQPREPQVYTLPPSREEMTKNQVSLTCLVKGFYPSDIAVEWESNGQPENNYKTTPPVLDSDGSFFLYSKLTVDKSRWQQGNVFSCSVLHEALHAHTTRKELSLSP
light: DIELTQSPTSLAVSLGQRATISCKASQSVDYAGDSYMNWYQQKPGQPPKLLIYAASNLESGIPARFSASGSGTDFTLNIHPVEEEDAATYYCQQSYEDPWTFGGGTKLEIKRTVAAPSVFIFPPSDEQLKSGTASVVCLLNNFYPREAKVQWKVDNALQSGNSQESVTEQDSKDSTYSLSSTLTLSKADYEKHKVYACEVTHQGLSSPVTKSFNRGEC
B2: Anti-CD154 antibody (SLAPH0336a/SLAPL0336a) with Fc variant LALA+ACT5+KAES (SG1106) (antibody)
heavy: B1 heavy with K328A, E335S, T438Y
light: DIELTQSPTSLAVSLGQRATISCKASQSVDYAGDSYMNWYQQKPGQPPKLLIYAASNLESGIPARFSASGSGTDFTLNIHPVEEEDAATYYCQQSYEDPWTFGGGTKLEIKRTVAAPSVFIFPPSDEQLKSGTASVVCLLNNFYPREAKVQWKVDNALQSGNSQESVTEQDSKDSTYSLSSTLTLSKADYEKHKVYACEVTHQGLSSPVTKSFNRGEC
notes: also called LALA+KAES+ACT5
B3: Anti-CD154 antibody (SLAPH0336a/SLAPL0336a) with Fc variant LALA+ACT3+KAES (SG1105) (antibody)
heavy: B1 heavy with K328A, E335S
light: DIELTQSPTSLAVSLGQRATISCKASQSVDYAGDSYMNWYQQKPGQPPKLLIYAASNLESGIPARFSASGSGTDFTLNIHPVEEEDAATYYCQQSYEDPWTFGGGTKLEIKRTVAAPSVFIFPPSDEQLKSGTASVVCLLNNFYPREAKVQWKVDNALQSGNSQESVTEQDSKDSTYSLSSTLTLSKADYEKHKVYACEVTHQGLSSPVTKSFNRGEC
notes: also called LALA+KAES+ACT3
B4: Anti-CD154 antibody (SLAPH0336a/SLAPL0336a) with Fc variant LALA+ACT5 (SG1045) (antibody)
heavy: B1 heavy with T438Y
light: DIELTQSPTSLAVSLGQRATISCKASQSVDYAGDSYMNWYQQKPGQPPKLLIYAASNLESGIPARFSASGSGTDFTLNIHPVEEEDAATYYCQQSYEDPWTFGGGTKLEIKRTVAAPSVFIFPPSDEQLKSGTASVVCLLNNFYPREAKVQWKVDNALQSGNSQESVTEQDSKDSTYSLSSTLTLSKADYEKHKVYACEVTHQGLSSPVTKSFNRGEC

molecular target: T1, human FcγRIIa (167H); experiment: SPR (Biacore T200, pH 7.4, 25 °C): His-tagged FcγR captured by anti-His antibody; antibody injected at 100 nM alone (Ab alone) or as 1:1 complex with trimeric CD154 (CD154 IC); binding level / capture level [B]

Binder	binding result
B1	no binding (tested: 100 nM)
B2	no binding (tested: 100 nM)
B3	no binding (tested: 100 nM)
B4	no binding (tested: 100 nM)

Molecular target: T2, mouse FcγRIII
Experiment: SPR (Biacore T200, pH 7.4, 25 °C): His-tagged FcγR captured by anti-His antibody; antibody injected at 100 nM alone (Ab alone) or as 1:1 complex with trimeric CD154 (CD154 IC); binding level / capture level [C]

Binder	binding result
B1	no binding (tested: 100 nM)
B2	no binding (tested: 100 nM)
B3	no binding (tested: 100 nM)
B4	no binding (tested: 100 nM)

molecular target: T3, mouse FcγRI; experiment: SPR (Biacore T200, pH 7.4, 25 °C): His-tagged FcγR captured by anti-His antibody; antibody injected at 100 nM alone (Ab alone) or as 1:1 complex with trimeric CD154 (CD154 IC); binding level / capture level [A]

Binder	binding result
B1	no binding (tested: 100 nM)
B2	no binding (tested: 100 nM)
B3	no binding (tested: 100 nM)
B4	no binding (tested: 100 nM)

molecular target: T7, Soluble human FcRn (human, UniProt P55899 24-297; P61769 21-119); experiment: SPR (Biacore T200, pH 7.4, 25 °C): biotinylated FcRn captured on a CAP chip; antibody injected at 100 nM alone (Ab alone) or as 1:1 complex with trimeric CD154 (CD154 IC); binding level / capture level
T7 construct: also called Biotinylated-FcRn
T7 sequence (P55899 24-297 limits assumed, chain 1 of 2): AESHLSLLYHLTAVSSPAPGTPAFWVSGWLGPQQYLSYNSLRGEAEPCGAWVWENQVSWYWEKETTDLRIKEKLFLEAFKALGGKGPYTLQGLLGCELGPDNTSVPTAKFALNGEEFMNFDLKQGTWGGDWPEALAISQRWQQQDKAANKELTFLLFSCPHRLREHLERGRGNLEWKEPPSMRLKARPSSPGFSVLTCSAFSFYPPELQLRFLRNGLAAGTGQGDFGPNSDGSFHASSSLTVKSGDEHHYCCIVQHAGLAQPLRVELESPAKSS
T7 sequence (P61769 21-119 limits assumed, chain 2 of 2): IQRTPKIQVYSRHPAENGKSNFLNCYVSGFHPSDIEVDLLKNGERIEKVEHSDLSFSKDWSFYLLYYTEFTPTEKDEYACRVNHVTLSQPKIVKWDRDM

Binder	binding result
B1	binds
B2	binds
B3	binds
B4	binds

Molecular target: T4, human FcγRIIa (167R)
Experiment: SPR (Biacore T200, pH 7.4, 25 °C): His-tagged FcγR captured by anti-His antibody; antibody injected at 100 nM alone (Ab alone) or as 1:1 complex with trimeric CD154 (CD154 IC); binding level / capture level [C]

Binder	binding result
B1	no binding (tested: 100 nM)
B2	no binding (tested: 100 nM)
B3	no binding (tested: 100 nM)
B4	no binding (tested: 100 nM)

molecular target: human C1q (Calbiochem) (human, UniProt P02745 23-245; P02746 28-253; P02747 29-245); experiment: ELISA: antibody coated on the plate at the concentration shown, human C1q added, detected with HRP anti-human C1q, OD 450 nm
Sequence (P02745 23-245 limits assumed, chain 1 of 3): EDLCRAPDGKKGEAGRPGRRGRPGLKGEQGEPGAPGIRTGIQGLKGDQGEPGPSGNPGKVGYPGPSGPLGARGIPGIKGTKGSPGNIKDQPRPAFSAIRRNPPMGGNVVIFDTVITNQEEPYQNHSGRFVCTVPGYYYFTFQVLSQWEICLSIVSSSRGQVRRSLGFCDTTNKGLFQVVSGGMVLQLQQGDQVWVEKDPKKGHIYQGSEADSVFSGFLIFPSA
Sequence (P02746 28-253 limits assumed, chain 2 of 3): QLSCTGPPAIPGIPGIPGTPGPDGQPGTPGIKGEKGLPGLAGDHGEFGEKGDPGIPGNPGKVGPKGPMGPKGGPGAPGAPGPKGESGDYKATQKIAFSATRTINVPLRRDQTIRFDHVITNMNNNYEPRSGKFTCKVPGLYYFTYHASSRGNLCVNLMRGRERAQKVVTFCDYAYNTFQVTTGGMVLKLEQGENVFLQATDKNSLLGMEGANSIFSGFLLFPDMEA
Sequence (P02747 29-245 limits assumed, chain 3 of 3): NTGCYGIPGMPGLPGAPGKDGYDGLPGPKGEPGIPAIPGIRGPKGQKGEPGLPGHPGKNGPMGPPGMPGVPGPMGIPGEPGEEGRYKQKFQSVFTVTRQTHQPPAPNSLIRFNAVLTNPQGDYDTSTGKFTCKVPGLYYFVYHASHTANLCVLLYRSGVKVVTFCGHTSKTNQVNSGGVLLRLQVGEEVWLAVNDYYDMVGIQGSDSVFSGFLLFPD

Binder	binding result
B1	binds
B2	binds
B3	binds
B4	binds

molecular target: T5, human FcγRIIb; experiment: SPR (Biacore T200, pH 7.4, 25 °C): His-tagged FcγR captured by anti-His antibody; antibody injected at 100 nM alone (Ab alone) or as 1:1 complex with trimeric CD154 (CD154 IC); binding level / capture level [D]

Binder	binding result
B1	no binding (tested: 100 nM)
B2	no binding (tested: 100 nM)
B3	no binding (tested: 100 nM)
B4	no binding (tested: 100 nM)

molecular target: T8, human FcγRIa (human, UniProt P12314 16-292); experiment: SPR (Biacore T200, pH 7.4, 25 °C): His-tagged FcγR captured by anti-His antibody; antibody injected at 100 nM alone (Ab alone) or as 1:1 complex with trimeric CD154 (CD154 IC); binding level / capture level [A]
T8 construct: also called human FcγR1a
T8 sequence (P12314 16-292 limits assumed): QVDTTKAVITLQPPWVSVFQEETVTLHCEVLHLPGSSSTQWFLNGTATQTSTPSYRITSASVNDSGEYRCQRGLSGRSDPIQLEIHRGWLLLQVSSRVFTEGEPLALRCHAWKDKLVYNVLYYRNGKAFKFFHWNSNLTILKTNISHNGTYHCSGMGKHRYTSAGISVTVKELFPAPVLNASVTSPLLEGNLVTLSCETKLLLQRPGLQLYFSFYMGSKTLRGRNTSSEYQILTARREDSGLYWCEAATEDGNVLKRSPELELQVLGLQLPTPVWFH

Binder	binding result
B1	binds
B2	binds
B3	binds
B4	binds

Molecular target: T6, human FcγRIIIb (NA1)
Experiment: SPR (Biacore T200, pH 7.4, 25 °C): His-tagged FcγR captured by anti-His antibody; antibody injected at 100 nM alone (Ab alone) or as 1:1 complex with trimeric CD154 (CD154 IC); binding level / capture level [G]

Binder	binding result
B1	no binding (tested: 100 nM)
B2	no binding (tested: 100 nM)
B3	no binding (tested: 100 nM)
B4	no binding (tested: 100 nM)
